Source: the nanobody polyreactivity screen of Harvey et al. (2022)

Assay: yeast display, Sf9 membrane polyspecificity reagent, FACS + sequencing; frameworks hold sequencing errors
Procedure, shortened: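 Nanobodies from a synthetic yeast display library (Saccharomyces cerevisiae BJ5465), induced 36–48 hours with galactose, were stained 1 hour at 4 °C with 10% biotinylated, detergent-solubilized Sf9 membrane reagent, enriched on streptavidin microbeads, then FACS-sorted. Anti-HA (expression) and streptavidin (reagent binding) fluorescence set low and high (top ~1%) gates. Polyreactivity labels come from the gate of origin. Genes were colony-PCR amplified, MiSeq 2 × 250 sequenced and filtered by CDR length.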

Sequence: QVQLVESGGGLVQAGGSLRLSCAASGSTFYRYAMGWYRQAPGKEREFVAAITGSGGRTYYADSVKGRFTISRDNAKNTVYLQMNSLKPEDTAVYYCAARYYYFYQISYRYDYWGQGTQVTVSS
- polyreactivity (PSR sort gate): high polyreactivity

Sequence: QVQLVESGGGLVQAGGSLRLSCAASGATFWRYAMGWYRQAPGKERELVAAISTSGGSTRYADSVKGRFTISRDNAKNTVYLQMNSLKPEDTAVYYCNAQHLARMDYWGQGTQVTVSS
- polyreactivity (PSR sort gate): high polyreactivity

Sequence: QVQLVESGGGLVQAGGSLRLTCAASGYTFRRTGMGWYRQAPGKERELVAAITNGGSTKYADSVKGRYTISRDNAKNTVYLQMNSLKPEDTAVYDCFYYVYAYDYWGQGTQVTLSS
- polyreactivity (PSR sort gate): high polyreactivity

Sequence: QVQLHESGGGLVQAGGSLRLSCAASGTISYAGPMGWYRQAPGKEREFVAAIGVGSNTNYADSVKGRYTIIRDNAKNTVYLQMNSLKPEDTAVYYCAVGGYAPLGRPYWCQGTQVTVSS
- polyreactivity (PSR sort gate): low polyreactivity

Sequence: QVQLVESGGGLVQAGGSLRLSCAASGLIFGVNAMGWYRQAPGKERELVAAISRDSDTNYADSVKGRFTISRDNAKNTDYLQMNSLKPEDTAVYYCNAYSEWPVPSPPRSQSLDYWGQGTQVTVSS
- polyreactivity (PSR sort gate): low polyreactivity

Sequence: QVQLVESGAGLVQAGGSLRLSCAASGFTFPVYAMGWNRQAPGKERELVAAISWSGGGTYYADSVKGRFTISRDIAKNTVYLQMNSLNPEDTAVHYCAARWYYYPLMYDYWGQGTQVTVSS
- polyreactivity (PSR sort gate): low polyreactivity

Sequence: QVHLVESGGGLVQAGGSLRLSCAASGRNFAYNAMGWYRQAPGKETELVASFTSGGSTNYADSVKGRFTISRDNANNTVYLQMNSLKPEDSAVYYCNKDGKYHRVLYDYWGQGTQVTVSS
- polyreactivity (PSR sort gate): low polyreactivity

Sequence: QVQLVESGGGLVQAGGSLRLSCAASGLTFQWYTMGWYRQAPGKERELVAAISSRGGSTYYADSVKGRFTISRDNAKNTVYLQMNSLKPEDTAVYYCAVRLRWYFFLMDYWGQGTQVTVSS
- polyreactivity (PSR sort gate): high polyreactivity

Sequence: QVQLVESGGGLDQAGGSLRLSCAASGITFPAYAMGLYRQAPGKEREWVAAITSGSSTNYADSVKGRFTISRDNAKNTVYLHLNSLKPEDTAVYYCAAQASYWGYRSGNRYGYWGQGTQVTVSS
- polyreactivity (PSR sort gate): high polyreactivity

Sequence: HVQHVESAVGLVQAGGRLRLSCAASGIIFRGNVMGWYIPAPGKERELVAAISGSGGRTYYADSVKGRFTISRDNAKNTVYLLMNSLKPEDTAVYYCAVSGTRTIWGISYRMYYWGQGTQVTVSS
- polyreactivity (PSR sort gate): high polyreactivity

Sequence: QVQHVESGGGLVQAGGSLRLSCAASGSTFTAYAMGWYRQAPGKVSELVAVITSGGGTYYADSVKVRFTISRDNANNTDYLQMNSLKPEDTAVYYCHSARTYAGTYIYRYGYWGQGTQVTVSS
- polyreactivity (PSR sort gate): high polyreactivity

Sequence: QVQLVESGGGLVQARGSLRLSCAASGSTFYPYAMGWYRQAPGKERELVAAISSGGSTSYADSVKGRFTISRDNAKNTVYLQMNSLKPEDTAVYYCNASSPGAVPVYDYDYWGQGTQVTVSS
- polyreactivity (PSR sort gate): low polyreactivity

Sequence: QVQLVESGGGLVQAGGSLRLSCAASGSIFYIYALGWYRQAPGKERELVAAISRSGGRTYYADSVKGRFTISRDNAKNTVYLQMNSLKPEDTGVYYCAARRYTAYDYWGQGTQVTVSS
- polyreactivity (PSR sort gate): high polyreactivity

Sequence: QLQLVESGGGLVQAGGSLRLSCAASGFIFHRNAMGWYRQAPGKERELVAAISGSGGSTYYADSVNGRFTISRDNAKNTVYLQMNSLKPEDTAVYYCAKRGRSTYGYDYWGQGTQVNVSS
- polyreactivity (PSR sort gate): high polyreactivity

Sequence: QVQLVESGGGLVQAGGSLRLSCAASGFIFRYYTMGWYRQAPGKERELVAVITSGGTTYYADSVKGRFTISRDNAKNTVYLQMNSLKPEDTAVYYCAADTFYIYEDVLYVQGDYYWGQGTQVTVSS
- polyreactivity (PSR sort gate): low polyreactivity

Sequence: KVQLVESGGGLVQAGGSLRLSCAASGGIFYYYAMGWYRQAPGKERELVAAISSGGGTNYADSVKGRFTISRDNAKNTVYLQMNSVKPEDTAVYYCAADQGRDTGYDYWGQGTQVTVSS
- polyreactivity (PSR sort gate): low polyreactivity

Sequence: QVQLVESGAGLVQAGGSLRLSCAASGRNFQYYAMVWYRQAPGKERELVAAISSGGGTYYADSVKGRFTISRDNAKNTVYLQMNSLKPEDTAVYYCAARYVYHRGFDYWGQGTQVTVSS
- polyreactivity (PSR sort gate): high polyreactivity

Sequence: QVQLVESGGGLVQAGGSLRLSCAASGRIIRWNAMGWYRQAPGKERELVAAITYSSGSTYYADSVKGRFTISRDNAKNTVYLQLNSLKPEDTAVYYCAAYSYGWDYSYDYWGQGTQVNVSS
- polyreactivity (PSR sort gate): low polyreactivity

Sequence: QVQLVESGGGLVQAGGSLRLSCAASGSILYVYAMGWYRQAPGKERELVAVITSGGSTNYADSVKGRFTISRDNAKNTVYLQMNSLKPEDTAVYYCAADPYSVYGGDYWGQGTQVTLSS
- polyreactivity (PSR sort gate): low polyreactivity

Sequence: QVQLVESGGGLVQAGGSLRLSCAASGRTFRTNDMGWYRQAPGKERELVARITRGGSTYADSVKGRFTISRDNAKNTVYLHMNSLKPEDTAVYYCAAVTKLSGIRYNYWGQGTQVTVSS
- polyreactivity (PSR sort gate): low polyreactivity

Sequence: QVQLVESGGGLVQAGGSLRLSCAASGFTFNRYAMGWYRQAPGKERELVARITRGGSTKYADSVKGRFTISRDNAKNTVYLQMNSLKPEDTAVYYCAADYGGFLGYDYWGQGTQVTVSS
- polyreactivity (PSR sort gate): high polyreactivity

Sequence: QVQLVESGGGLVQAGGSLRLSSADSGSIFVYNDMGWYRQAPGKERELVARIDWSGDRTYADSVKGRFTISRDNAKNTVYLQMNSLKPEDTAVYYCNADEWRWDEIIPYAVDYCGQGTQVTVSS
- polyreactivity (PSR sort gate): low polyreactivity

Sequence: QVQLVESGGGLVQAGGILRLSCAASGRIFRYNAMGWSRQAPGKERELVAAISSSGSSTYYADSVKGRFTISRDNAKNTVYLQMNSLKPADTAVYYCNARIPSRYYYQYDYWGQGTQVTVSS
- polyreactivity (PSR sort gate): high polyreactivity

Sequence: QVQLVESVGGLVQAGGRLRLSCAASGSTFRYYAMGRYRPATGKESELVAAISRSGGSTYYADSVKGRFTISRDNAKNTVYLQMNSLKTEDTAVYYSNGRYYTFYSIYDYWGQGTQVTVSS
- polyreactivity (PSR sort gate): high polyreactivity

Sequence: QVQLVESGGGLVQAGGSLRLSCAASGSTFSYMGWYRQAPGKERELVAAISYRGGRTYYADSVKGRFTISRDNAKNTVYLQMNSLTPEDTAVYYCNADGGRTYYSRYDYWGQGTQVTVSS
- polyreactivity (PSR sort gate): low polyreactivity

Sequence: QVQLVESGGGLVQAGGSLRLICAASGFTFSQYAMGWYREAPGKERELVAAISWNGGSTYYADSVKGRFTISRDNAKNTVYLQMNSLKPEDTAVYYWNRRWPFVRFYYWGQGTQVTVSS
- polyreactivity (PSR sort gate): high polyreactivity

Sequence: QVHLVESGGGLVQAGGSLRVSCDASGILYTVYAMGWYRQAPGKQRELVAAITWSGGSTYYADSVKGRFTISRDNAKNTVYLQMNSLKPEDTEVYYCNTVGRVWDVETDGDYDYWGQGTQVTVSS
- polyreactivity (PSR sort gate): low polyreactivity

Sequence: QVQLVESGGGFVQAGGSLRLSCAASGSTFRYYAMGWYRQAPGTEREFVAAISWSGSSTYYADSVKGRFTISRDNAKNTVYLQMNSLKPEDTAVYYCAARYRYYGYDYWGQGTQVTVSS
- polyreactivity (PSR sort gate): high polyreactivity

Sequence: QVQLVESGGGLVQAGGSLRLSCAASGRIFRPYAMGWYRQAPGKERELVAAITRGGSTKYADSVKGRFTISRDNAKNTVYLQMNSLKPEDTAVYYCAARGWSTGTSYRSAWWDYYYWGQGTQVTVSS
- polyreactivity (PSR sort gate): high polyreactivity

Sequence: QVQLVESGGGLDQAGGSLRLSCADSASTFYRYAKGWSRQAPGKEWELVAAITRTGGSTYADSVKGRFTISRDNAKNTVYLQMNSLKPEDTAVYFCAVQRYFVSSISPFYYWGQGTQVTVSS
- polyreactivity (PSR sort gate): low polyreactivity

Sequence: QVQLVESGGGLVQAGGSLRLSCAASGFIFYLYAMGWYRQAPGKERELVAAISWSGGITYYADSVKGRFTISRDNAKNTVYLQMNSLKPEDTAVYYCNAVGASASDGDYWGQGTQVTVSS
- polyreactivity (PSR sort gate): high polyreactivity

Sequence: QVQLVESGGGLVQAGGSLRVSCAASGRIFRYTSGWYRQAPAKERELVATINSCGRTYYADSVKGRFTISRDNAKNTVYLQRNCLKPEDTAVYFCAAPYQTKCNKYVHGSPIENDYWGQGTQVTVSS
- polyreactivity (PSR sort gate): low polyreactivity

Sequence: QVQLQESGGGLVQAGGSQRLSSAASGYNFYFQYMGWYRQAPGKEREFVAAISDGANTNNADSVKGRFTISRDNAKNTEYLQMNSLKPEDSAVYYCAVYADDNYYYIYWGQGTQVTVSS
- polyreactivity (PSR sort gate): low polyreactivity

Sequence: QVQLVESGGGLVQAGGSLRLSCAASGSIFIYYAMGWYRQAPGKEREFVADISYSGDSTYYADSVKGRFTISRDNAKNTVYFQMNSLKPEDTAVYYCAADTWYDAGVYPYDYWGQGTQVTVSS
- polyreactivity (PSR sort gate): high polyreactivity

Sequence: QVQLVESGGGLVQAGGSLRLSCAASGSIFHGYAMGWYRHAPGKERELVAAITWSGGRTYYADSVKGRFTISRDNAKNNVYLQMNSLKPEDTAVYYCAAVALTRRYDYWGQGTQVTVSS
- polyreactivity (PSR sort gate): high polyreactivity

Sequence: QVQLVESGGGLVQAGGSLRLSCAASGITFYVYTMGWDRQAPGKERELVAAITWSGGSTYYADSVKGRFTISRDNAKNTVYLQMKSLKPEDTAVYYCNRVGYWVGLDSWGQGTQVTVSS
- polyreactivity (PSR sort gate): high polyreactivity

Sequence: QVQLVESGGGLVQAGGSLRLSCAASGLIFEYYAMGWYRQAPGKERELVAVINWSGASTYYADSVKGRFTITRDYAKNTVYLQMNSLKPEDTAVYYCAAGVLITGLRFDYWGQGTQVTVSS
- polyreactivity (PSR sort gate): low polyreactivity

Sequence: QVQLVESGGGLVQAGGSLRLSCAASGFTLGYYTMGWYRQAPGKERELVAAIRSNGGSTYYADSVKGRFTISRDNAKNTVYLQMNSLKPEDTAVYYCAARRWRYVGTRYDYWGQGTQVTVSS
- polyreactivity (PSR sort gate): high polyreactivity

Sequence: QVQLVESGGGLVQAGGSLRLSCAASGIIFPKYVMGWYRKAPGKERELVAAISWSGTSTYYADSVKGRFTISRDNAKNTVYLQMNSLKPEDTAVYYCAARWSSTTGRFDYWGQGTQVTVSS
- polyreactivity (PSR sort gate): high polyreactivity

Sequence: QVQLVESGGGLVQAGGSLRLSCAASGRIFSVYTMGWYRQAPGKEREFVASITGSAGSTYYADSVKGRFTISRDNAKNTVYLQMNSLKPEDTAVYYCAKRITAWYTYYGYWGQGTQVTVSS
- polyreactivity (PSR sort gate): low polyreactivity

Sequence: QVQLVESGGGLVQAGGSLRLSCAASGLIFATNAMGWYRQAPGKERELVATITRSAGRTYYADSVKGRFTISRDNAKNPVYLQMNSLKPEDTAVYYCAASYWDTEPGYREYDYWGQGTQVTVSS
- polyreactivity (PSR sort gate): low polyreactivity

Sequence: QVQLVESGGGLVQAGGSLRLSCAASGSTSYTNAMGWYRQAPGKERELVARITNDGSTTYADSVKGRFTISRDNAKNTVYLQMNSLKPEDTAVYYCARPYRFWRYYGMYYWGQGTQVTVSS
- polyreactivity (PSR sort gate): high polyreactivity

Sequence: QVQLVESGGGLVQAGGSLRLSCAASGFIDAYTMGWYRQAPGKERELVAAMTWSGGRTYYADSVKGRFTISRDNAKNTVYLQLYSLKPEDTAVYYCAKDVTPYSPDDDYWGQGTQVTVSS
- polyreactivity (PSR sort gate): low polyreactivity
